# Test results as given in the supplement of paper PMC12042874.
# ± gives the uncertainty stated by the source.
# Experiment: amyloid nucleation score (Sup35N fusion, yeast selection) (log enrichment); library NNK3; higher = more nucleation; inactive = no reads after selection
# How it was run: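 The nucleation score, computed with DiMSum, is the log enrichment of output over input reads, centred on the mode score of non-aggregating sequences. Sequences with under 100 input reads were dropped. Reads were generated by Illumina sequencing of plasmid inserts from psi-negative yeast with Sup35N fused to peptides of 20 random codons, induced with 100 μM copper sulfate for 24 hours and grown 7 days at 30°C on medium lacking adenine and uracil.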
row,Substance,amyloid nucleation score
1,KGGTLRRLTLSGTGTSQPSE,inactive
2,YRELSTLREEMHIRY,inactive
3,RLDGSMSGCFSTFWNWNIVR,inactive
4,NVLYLQLRPMNLCEANSEIG,inactive
5,CHMWSEHSTTLMYYSKKY,0.199 ± 0.41
6,AFRSTSQYVY,inactive
7,WFVSSWKNSHLKCGL,inactive
8,SLYRDLHFYSVLGF,inactive
9,FGRLTV,inactive
10,WSPKTLLM,inactive
11,FVSMRIYGGLRRWHHEYLVV,inactive
12,RELYFSYDSLDYLGMRVWML,inactive
13,VKLKNLSCKRLLRRHSACHR,inactive
14,HLTVVSSKYITPSGTLMELH,0.648 ± 0.27
15,MPDLITGGKPAIRWYYGSDS,inactive
16,LSITDVGI,inactive
17,CMDYYKMYISYYFDAGWVLS,inactive
18,NLDLWMQSCFHRVAVYS,inactive
19,MFGNIRTFAPTITCMGDFTL,inactive
20,TNPLYYRS,inactive
21,GPTLSGLNIAHWSNIYQDLG,inactive
22,IVVLWV,-0.341 ± 0.39
23,SQGQY,-0.672 ± 1.4

row,Substance,amyloid nucleation score
1,PAPHRIKRIL,inactive
2,SCGYTLWLYRCEIQRRV,inactive
3,IRSAVVV,-0.53 ± 1.8
4,YRNLWNIHTVISIASL,inactive
5,LFCIWSSVLVRVHVFQKW,inactive
6,RERIFRICVFRMTSDKMTAT,inactive
7,AHFISFNRYHVARFINAHRL,inactive
8,IYQWTEFCGRIFQSCRMVLC,inactive
9,RVFGGEIRLSRTCVVM,1.27 ± 0.17
10,MVLDDYIRKGG,0.073 ± 0.33
11,YGRLLVGFLTITV,inactive
12,LSRSWCWRR,inactive
13,LSTENLLVYMWDRLNSILKG,inactive
14,WLSYLLNG,1.91 ± 0.096
15,NLLSLVFIRWGNYRRFKMFR,0.77 ± 0.22
16,VIMRMFSFARLFVGSYPFRV,inactive
17,IMILFI,0.13 ± 0.49
18,SFCFSNDVA,inactive
19,DLNMGYKFLISKYSWPVYPM,inactive
20,ISLFFRICY,0.397 ± 0.27
21,MAMLS,inactive
22,AAYGELL,inactive
23,CWYQPPNDNVYFMMILYI,1.97 ± 0.084

row,Substance,amyloid nucleation score
1,MYFVKMLMGVILLVNFSRW,inactive
2,YISSFRGDIVIY,inactive
3,SNMVPLVNSIPRKGVVKG,inactive
4,IVCHHRDYFLAYYYEMLHCR,inactive
5,FFRSQKWKSAYMLDNGHSNS,inactive
6,SARYWESDRLALIRCHLELR,inactive
7,PLWAYKYVPGFYRVFKVCLM,inactive
8,ASQSSVLPWNS,inactive
9,HEIPETQFCSIWFDSVCWCL,inactive
10,DMIESSKRFFGSARIVLPEM,inactive
11,KQGPWVDTVTVMKTFRMSIN,inactive
12,VNELSFSTSF,inactive
13,ELRSIR,inactive
14,SPWLSAHRSNTGVRTLSLEV,inactive
15,SEVRSLKHVGLCIQSMGSAL,inactive
16,SKTPLCMNYFL,inactive
17,YRAFTFIGCLNGLTNQHFFY,2.4 ± 0.059
18,ISTDSVIHTTMEHSGE,inactive
19,LFGTFYPFSTTRFNVVKPDG,inactive
20,RFVTRCREDSVTLKHG,inactive
21,IHHKLVDL,inactive
22,VCLFICLNDDFLIRRPDCLS,2.08 ± 0.051
23,DCVGYRGGDGFAWTADELWS,inactive

row,Substance,amyloid nucleation score
1,AIKLC,inactive
2,FRQYHMRRVRLHGRRDVYGQ,inactive
3,RSVFCKKFPDKNMVVFGVHL,inactive
4,NFFNLLGMKLVR,inactive
5,WSGCMWSCARGYGSFPSGPL,inactive
6,ITIMSDQETSHVWLVDRTLP,0.298 ± 0.17
7,FKTCLGPQSTLVKGEVESHT,inactive
8,RNIQWRFIP,inactive
9,SLIIDKGPDVYCSWTVERIT,inactive
10,ELDCELMIALFLLWIVHANG,-0.657 ± 0.93
11,RLTVYISQRKKHHCLMERSH,0.221 ± 0.33
12,YFYLSICDVSMVGSEFIYSR,0.373 ± 0.2
13,LVLWMVDTSFAGSVDVSEMA,inactive
14,ASLLLTYWVVTEVCRLDLGL,inactive
15,IDQRWYCALQCHCREEINCR,inactive
16,FLDEFLWSCGIGFLRFIKDV,inactive
17,VVKAFYRARELGFRAGLRTD,inactive
18,SFPWSCPASYSYQGCWWERD,inactive
19,PTHILPYLVD,inactive
20,FYSECCILMGFFVGQNHSVW,1.61 ± 0.094
21,CHYFNNLACYGSRIEMT,inactive
22,KWSKILAPFILFLKLKSNCS,inactive
23,TCHLPAQSLLFIRCSTKAGV,inactive

row,Substance,amyloid nucleation score
1,ISTSLMDRRTKMLRQM,inactive
2,IMWGYDSWFCSANHRSQFRY,-0.314 ± 0.98
3,CQSSVLLCSYCGY,2.65 ± 0.074
4,KFPWT,inactive
5,YLLLDYGTRSFLYDRYRYIR,0.067 ± 0.68
6,GKTLLTSKDGCV,inactive
7,VKEPMVPITLLSSTSSLDGM,inactive
8,WFYMSRDGYEAVKRLTKLGK,inactive
9,CVMCG,inactive
10,IQHFFQINNWLLDI,1.98 ± 0.07
11,ILTLLCRFTYRDETPCLWTV,inactive
12,MTCTVRSEVYIHFNFVAIKF,0.299 ± 0.33
13,SARISNAVNDSFTGKTMYNK,inactive
14,RSRET,inactive
15,YTDTYSSLKDLPTGINCYNI,inactive
16,SAIYLYKYCPSNIITRTLVP,inactive
17,ADVCNAFRVISICLYAIIVL,inactive
18,SSVKRYLAVRWCSESMHTRW,inactive
19,YLWARNGDLLLSCCSLNSCM,2.52 ± 0.061
20,FCDNQWRHKPTRVTIFFE,inactive
21,VNLNKGLRWNYFGDDMKPHR,1.19 ± 0.073
22,AMTCNDYSRYVF,inactive
23,SIGNAVYMIVGITGVRRRIY,inactive

row,Substance,amyloid nucleation score
1,CCRGRAFVGYLLQIIYVRGR,inactive
2,RLASGLNPFYVRG,inactive
3,LADNYVTCKS,inactive
4,ISIFWSIEGSNYLHLILHQG,inactive
5,RGIWGLSLYGVISNVSGLSK,-0.103 ± 0.43
6,NVYMRSYKIRSCMTFRTLAL,inactive
7,FWGLSAMSLEVRGWRMGGEL,0.196 ± 0.54
8,KSYISVRK,0.57 ± 0.18
9,YGFNNWYKPSDLSRTPSESG,inactive
10,RMGLTEMWHVIPSITSRQYL,inactive
11,STYRHLDRSL,inactive
12,PCHHFFFA,inactive
13,HISRYEITVGCLIFRLLTRE,2.46 ± 0.054
14,WKRKRRLRELGITKVILRVL,inactive
15,SRMSGLWD,inactive
16,CGNHASVWRIGTVRKD,inactive
17,NNPLLIRDLHLTKVDISAVC,inactive
18,EYRGKIDVYYLIGQNYSVSC,0.621 ± 0.27
19,QVSLSRRISFYGHLNSDNES,inactive
20,GTYPSKIKGFTLKGNLR,inactive
21,YLTCVVKRTVH,inactive
22,HRRSMQLWG,inactive
23,CDVQKSLGCHTCWGRDWWNR,inactive

row,Substance,amyloid nucleation score
1,ASHMMQRIMTRQ,-0.308 ± 0.84
2,SLRFCWILGENQSGTCSIKR,1.16 ± 0.15
3,MCMSAFEGSSIICDCMVVLL,1.85 ± 0.088
4,LLTNLCIQYISSTLYYDRLF,inactive
5,IWRDLGRLIQLFWNEIYHVN,inactive
6,RRKLTAMVNTGEWMSQDDGS,inactive
7,LYAFRDSCDTFSC,inactive
8,FTPYICVVQLLCYCMILRIY,inactive
9,GRIQPCISRAAGPDAGVMGL,inactive
10,EFNNFYFCFFTV,2.71 ± 0.064
11,TDSPLRLKRDYSPNSFCRSG,0.005 ± 1.1
12,DMTGGVCHFWSCCVSCNK,2.96 ± 0.072
13,CCSRACEFVAVKFNRSSYNL,inactive
14,SYLCVATWSCPHYVGFSQHI,inactive
15,HNVFST,inactive
16,RMVRIALTL,inactive
17,NYVCGVIAVNVVMNSSNNWR,2.66 ± 0.051
18,TRNCGRSGYRL,1.13 ± 0.089
19,QGSRLNGIKSPLCIGLKCSR,inactive
20,PSYLKTFRDVLMTVSMYFVC,inactive
21,FVLVN,inactive
22,NRFWLLCDFLFVHTCV,0.897 ± 0.2
23,NCSSVPVSALFGEGVRKTPS,inactive
